Numbering of substitutions follows the chain as printed. Names and notes keep the numbering of the source.

We go through four molecules from US20250186614A1, “COMPACT DRUG RESPONSIVE DOMAINS FOR REGULATION OF FUNCTION/ABUNDANCE AND DELIVERY OF POLYPEPTIDE PAYLOADS” (OBSIDIAN THERAPEUTICS, INC., priority 2022, published 2025).

The conditions of data set [1]: clinically approved dosages 0.1-0.3 mg/kg of body weight, tissue/organ transplants; cited from earlier work.
The test system of data set [2] is Jurkat cells. Put plainly: Tacrolimus serum experiments: dose response of FKBP13 constructs under different serum concentrations, GFP MFI. Type of data set: cell-based. The following applies: increasing FBS, FIGS. 51-54. Here is the method: Incubation with increasing FBS results in 2 fold increase in Ec50 with 80% FBS.
A further data set deals with T1, FKBP13 (Homo sapiens, UniProt P26885).
T1 sequence (P26885 22-142): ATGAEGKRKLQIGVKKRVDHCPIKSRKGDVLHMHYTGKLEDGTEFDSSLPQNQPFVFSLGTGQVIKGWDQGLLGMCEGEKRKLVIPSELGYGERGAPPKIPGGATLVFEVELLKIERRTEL
The following applies: read-out: binding affinity for FKBP13; cited from earlier work.

The subject of data set [3] is Jurkat cells. Put plainly: Tacrolimus dose response of FKBP13-AcGFP-mCherry constructs stably transduced into Jurkat cells, GFP MFI by flow cytometry. Type of data set: cell-based. The method in brief: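 GFP geometric MFI was read by flow cytometry in mCherry+ cells and curve-fitted against tacrolimus dose. Cells were Jurkat E6-1, lentivirus-transduced with FKBP13-AcGFP-mCherry fusion constructs until 10-25% mCherry-positive on day 5 post-transduction.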

The subject of another data set is HEK293 cells. In words: Tacrolimus dose response of FKBP13 constructs transiently transfected into HEK293 cells, Celigo Image Cytometer. In kind it is cell-based. To be noted: for performance / drug responsiveness in tacrolimus dose response: FIGS. 5, 6, 8. The source says: In another experiment, several FKBP13 DRD constructs were transiently transfected into HEK293 cells, as described above, and analyzed using a Celigo Image Cytometer (Nexcelom, Lawrence, MA).
To test the effects of other substitutions instead of methionine at residue number 54 and leucine at position 93 FKBP13 DRD constructs were generated and were transiently transfected into HEK293 cells, as described above, and analyzed using a Celigo Image Cytometer (Nexcelom, Lawrence, MA).
In another experiment, to explore the possibility of further truncating FKBP13, constructs (FKBP-044, FKBP-083, FKBP-084, FKBP-085, and FKBP-086) were transiently transfected into HEK293 cells, as described above, and analyzed using a Celigo Image Cytometer (Nexcelom, Lawrence, MA). A combination of DRD-genic M54A with truncation of the N-terminal histidine lowers basal (FKBP-083).
In another experiment, several constructs (FKBP-044, FKBP-092, FKBP-093, FKBP-094, FKBP-095, FKBP-096 and FKBP-097) designed to explore additional DRD-genic mutations were transiently transfected into HEK293 cells, as described above, and analyzed using a Celigo Image Cytometer (Nexcelom, Lawrence, MA).
Other constructs (FKBP-091, FKBP-098, FKBP-099, FKBP-100, and FKBP-101) were transiently transfected into HEK293 cells, as described above, and analyzed using a Celigo Image Cytometer (Nexcelom, Lawrence, MA).
In another experiment, several constructs (FKBP-091, FKBP-102, FKBP-103, FKBP-104, FKBP-105 and FKBP-106), designed to combine the binding site mutation identified in FKBP-091 with novel DRD-genic mutations, were transiently transfected into HEK293 cells, as described above, and analyzed using a Celigo Image Cytometer (Nexcelom, Lawrence, MA). […]
In another experiment, several other constructs (FKBP-091, FKBP-107, FKBP-108, FKBP-109, FKBP-110, and FKBP-111), designed to combine the binding site mutation identified in FKBP-091 with novel DRD-genic mutations, were transiently transfected into HEK293 cells, as described above, and analyzed using a Celigo Image Cytometer (Nexcelom, Lawrence, MA). […]

The subject of data set [4] is Jurkat cells. Put plainly: Sirolimus (rapamycin) dose response of FKBP13 constructs stably transduced into Jurkat cells, flow cytometry. In kind it is cell-based. To be noted: rapamycin, Table 14. How it is done:
Normalized EC50 values were calculated from the mCherry normalized GFP MFI values, which accounted for any differences in mCherry intensity between samples.
(A flow cytometer gives signals particle by particle.)

[5] abbreviates: tacrolimus dose response, Jurkat cells stably transduced (FIG. 10), Table 5.

Broadly, the Cmax is the highest concentration seen after dosing. As to `C=CC[C@@H]1/C=C(\C)C[C@H](C)C[C@H](OC)[C@H]2O[C@@](O)(C(=O)C(=O)N3CCCC[C@H]3C(=O)O[C@H](/C(C)=C/[C@@H]3CC[C@@H](O)[C@H](OC)C3)[C@H](C)[C@@H](O)CC1=O)[C@H](C)C[C@@H]2OC` [Tacrolimus, tacrolimus], the Cmax in data set [1] is 20 to 68 ng/mL. Moreover, the “increase in Ec50 with 80% FBS” value with Jurkat cells [2] is given as 2 fold. Moreover, the Kd at FKBP13 was 166 nM.

B1: FKBP-068: FKBP13 DRD Q72R, Q84E, A117H, M54S; SEQ ID NO: 24 (protein)
chain: HCPIKSRKGDVLHSHYTGKLEDGTEFDSSLPRNQPFVFSLGTGEVIKGWDQGLLGMCEGEKRKLVIPSELGYGERGHPPKIPGGATLVFEVELLKIER
modifications: Description of sequence: FKBP13-AcGFP-mCherry Fusion; Construct Name: FKBP-068; FKBP13 DRD in Construct : FKBP13 (mutated to match FKBP12 active site - Q72R Q84E A117H) (DRD - M54S)
As for B1, in the data set with Jurkat cells [3] (setting [5]), the “Fold Change” value turned out to be 43.62. For the same molecule, the “performance / drug responsiveness in tacrolimus dose response” value in the data set on HEK293 cells is “closest in performance to the original M54A substitution”.

B2: FKBP-091: FKBP13 DRD Q72R, Q84E, A117W, M54A; SEQ ID NO: 41 (protein)
chain: B1 chain with S14A, H77W
modifications: Description of sequence: FKBP13-AcGFP-mCherry Fusion; Construct Name: FKBP-091; FKBP13 DRD in Construct : FKBP13 (mutated to match FKBP12 active site Q72R Q84E A117W) (DRD - M54A)
As usually defined, the EC90 is the concentration at which the effect reaches the 90% level. Turning to B2, the EC90 amounted to 398 nM in the data set on Jurkat cells [4] (read-out: Rapamycin EC90); 414 nM in the data set on Jurkat cells [4] (normalized, read-out: Rapamycin EC90 (Norm)); 117 nM in the data set with Jurkat cells [3] (read-out: Tacrolimus EC90 (Norm), tacrolimus, normalized, Table 14); 111 nM in the data set on Jurkat cells [3] (read-out: Tacrolimus EC90, tacrolimus, Table 14). Further, in the data set on Jurkat cells [4] (fold change), the “Rapamycin FC” value was determined as 3.2. Also, the “Fold Change” value with Jurkat cells [3] (setting [5]) was found to be 12.36; in the data set on Jurkat cells [3] (tacrolimus, Jurkat cells stably transduced, Table 6), 11.29. Also, the “Tacrolimus FC” value with Jurkat cells [3] (tacrolimus, fold change, Table 14) was found to be 12.4. Besides, in the data set on HEK293 cells, the “performance / drug responsiveness in tacrolimus dose response” value is “superior drug responsiveness”.

B3: FKBP-083: FKBP13 trunc1 DRD Q72R, Q84E, A117H, M54A; SEQ ID NO: 33 (protein)
chain: CPIKSRKGDVLHAHYTGKLEDGTEFDSSLPRNQPFVFSLGTGEVIKGWDQGLLGMCEGEKRKLVIPSELGYGERGHPPKIPGGATLVFEVELLKIER
modifications: truncated (trunc1); Description of sequence: FKBP13-AcGFP-mCherry Fusion; Construct Name: FKBP-083; FKBP13 DRD in Construct : FKBP13 trunc1 (mutated to match FKBP12 active site - Q72R Q84E A117H) (DRD - M54A)
B3: the Basal entry with HEK293 cells (FIG. 7) is “lowers basal”.
